Measured values published in patent US20260072038A1.

What was measured:
[1] = molecular target: huCD64/human FcRI (R&D Systems 1257FC) (human) (UniProt P12314); experiment: SPR (Biacore), average of three BYL batches, CD64 as analyte
[2] = molecular target: Human TNFa (recombinant) (human) (UniProt P01375); experiment: SPR (Biacore), average of three BYL batches, TNFa as analyte
[3] = molecular target: huCD64/human FcRI (R&D Systems 1257FC) (human) (UniProt P12314); experiment: SPR (Biacore), antibody captured on Protein A CM5 chip, CD64 as analyte
[4] = molecular target: Human TNFa (recombinant) (human) (UniProt P01375); experiment: SPR (Biacore), antibody captured on Protein A CM5 chip, TNFa as analyte

Substance | Kd [1] [nM] | Kd [2] [nM] | Kd [3] [nM] | Kd [4] [nM] | koff [4] [s⁻¹] | kon [4] [M⁻¹ s⁻¹] | koff [3] [s⁻¹] | kon [3] [M⁻¹ s⁻¹]
BYL-mAb (adalimumab produced in BYL, average of the three batches) (antibody) | 0.353 | 0.134 |  |  |  |  |  | 
Humira CF CHJ (adalimumab produced in BYL/ALiCE, batch CHJ) (antibody) |  |  | 0.346 |  |  |  |  | 
Humira CF DAK (adalimumab produced in BYL/ALiCE, batch DAK) (antibody) |  |  | 0.346 |  |  |  |  | 
Humira CF DB3 (adalimumab produced in BYL/ALiCE, batch DB3) (antibody) |  |  | 0.367 | 0.122 | 5.83e-05 | 478000 | 0.000252 | 686000
Reference IgG Adalinumab (Humira) (ABIN5668145), commercial adalimumab reference product expressed from CHO cells (antibody) |  |  | 0.158 | 0.185 | 8.37e-05 | 453000 | 0.000152 | 959000
